From paper PMC2110644
Read-outs that look alike come from different tables or passages of the source.

Tests used:
Assay in all cases: co-sedimentation
[1] = target: actin (mol wt = 43,000), platelet (human (endogenous in platelets)) (UniProt P60709)
[2] = target: actin (mol wt = 43,000), platelet (human (endogenous in platelets)) (UniProt P60709); remark: listed apart in the source
[3] = target: actin (mol wt = 43,000), platelet (human (endogenous in platelets)) (UniProt P60709); remark: listed apart in the source
[4] = target: actin (mol wt = 43,000), platelet (human (endogenous in platelets)) (UniProt P60709); remark: listed apart in the source

Sequence of platelet membrane glycoprotein III (P05106 27-788): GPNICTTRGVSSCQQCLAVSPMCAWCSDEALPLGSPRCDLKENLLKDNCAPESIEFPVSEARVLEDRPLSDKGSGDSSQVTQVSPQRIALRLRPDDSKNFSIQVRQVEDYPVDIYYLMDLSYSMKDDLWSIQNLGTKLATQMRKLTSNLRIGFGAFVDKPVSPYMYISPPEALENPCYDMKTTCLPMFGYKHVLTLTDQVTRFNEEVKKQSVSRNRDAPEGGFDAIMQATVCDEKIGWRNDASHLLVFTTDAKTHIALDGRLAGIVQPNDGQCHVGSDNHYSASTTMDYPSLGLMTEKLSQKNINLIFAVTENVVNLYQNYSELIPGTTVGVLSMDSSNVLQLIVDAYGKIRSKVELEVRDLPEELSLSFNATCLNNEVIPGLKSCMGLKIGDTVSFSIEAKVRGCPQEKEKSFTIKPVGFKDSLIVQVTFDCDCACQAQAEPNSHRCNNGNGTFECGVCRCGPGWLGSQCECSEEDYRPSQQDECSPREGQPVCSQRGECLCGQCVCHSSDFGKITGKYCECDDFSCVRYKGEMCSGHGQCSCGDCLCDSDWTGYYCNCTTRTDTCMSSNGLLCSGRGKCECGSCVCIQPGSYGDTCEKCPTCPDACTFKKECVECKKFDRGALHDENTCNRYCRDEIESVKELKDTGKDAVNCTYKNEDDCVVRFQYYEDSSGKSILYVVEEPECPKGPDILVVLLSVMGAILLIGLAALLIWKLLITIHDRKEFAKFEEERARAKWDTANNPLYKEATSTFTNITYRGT
Sequence of platelet membrane glycoprotein IIb (receptor) (P08514 32-1039): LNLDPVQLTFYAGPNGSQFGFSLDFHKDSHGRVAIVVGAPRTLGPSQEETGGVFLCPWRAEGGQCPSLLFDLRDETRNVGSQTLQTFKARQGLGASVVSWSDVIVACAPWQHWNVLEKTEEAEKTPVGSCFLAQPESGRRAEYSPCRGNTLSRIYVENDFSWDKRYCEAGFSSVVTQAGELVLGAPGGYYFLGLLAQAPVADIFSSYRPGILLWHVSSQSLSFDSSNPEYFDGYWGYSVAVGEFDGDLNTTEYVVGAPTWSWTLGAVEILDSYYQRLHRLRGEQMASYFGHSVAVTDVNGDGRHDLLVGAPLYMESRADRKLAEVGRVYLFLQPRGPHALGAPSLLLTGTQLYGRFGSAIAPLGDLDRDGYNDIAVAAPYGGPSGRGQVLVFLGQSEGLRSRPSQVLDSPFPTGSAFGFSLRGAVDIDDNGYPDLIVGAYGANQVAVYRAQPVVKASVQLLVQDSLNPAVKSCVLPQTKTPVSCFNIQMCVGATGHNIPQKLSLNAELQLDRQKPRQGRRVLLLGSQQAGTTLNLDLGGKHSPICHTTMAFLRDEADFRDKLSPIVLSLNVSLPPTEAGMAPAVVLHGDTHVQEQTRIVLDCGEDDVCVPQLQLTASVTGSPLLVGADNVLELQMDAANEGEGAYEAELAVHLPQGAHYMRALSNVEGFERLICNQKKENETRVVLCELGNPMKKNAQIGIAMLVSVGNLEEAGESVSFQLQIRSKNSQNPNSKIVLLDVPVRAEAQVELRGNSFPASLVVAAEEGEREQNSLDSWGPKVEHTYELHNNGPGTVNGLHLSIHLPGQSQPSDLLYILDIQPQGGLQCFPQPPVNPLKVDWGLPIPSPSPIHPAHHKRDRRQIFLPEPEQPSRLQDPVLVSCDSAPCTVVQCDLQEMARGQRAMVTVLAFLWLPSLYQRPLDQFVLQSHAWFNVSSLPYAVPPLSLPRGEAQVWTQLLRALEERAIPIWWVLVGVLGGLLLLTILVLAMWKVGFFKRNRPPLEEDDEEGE

Row | percent of the glycoprotein in the Triton residue [1] [%] | percent of the glycoprotein in the Triton residue [2] [%] | percent of the glycoprotein in the Triton residue [3] [%] | percent of the glycoprotein in the Triton residue [4] [%] | percent of the protein in the Triton residue [2] [%] | percent of the protein in the Triton residue [3] [%] | Substance
1 | 2.4 | 14.3 | 3.4 |  |  |  | platelet membrane glycoprotein III (from UniProt P05106 27-788) (receptor)
2 | 5.4 | 26.1 | 7.2 | 3.7 |  |  | platelet membrane glycoprotein IIb (receptor)
3 |  |  |  |  | 55.2 | 34.5 | 255,000 protein (actin-binding protein), platelet (from UniProt P21333 1-2647) (natural protein)
